Data: the supplement of paper PMC10567573

B1: DVL3 (parent)
chain: FPELGYSYGGGSASSQHSEGSRSS
B2: PRKX (parent)
chain: KLLVVDRTRRLGNMKNGANDVKHH

Variants of: B1
Experiment: protein stability index of a GFP-peptide fusion (GPS, HEK-293T) (PSI 1-6); higher = more stable
Conditions: c terminus: a fixed tail appended
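Further: lentivirally expressed fusions sorted by FACS into six bins by GFP to DsRed ratio, PSI derived from sequencing read proportions per bin multiplied by bin number.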

Question: With G20F as the variant, how does the protein stability index read?
Answer: 2.63

Question: For G20N, which protein stability index is on record?
Answer: 3.43

Question: With G20M as the variant, how does the protein stability index read?
Answer: 2.48

Question: For G20W, which protein stability index is on record?
Answer: 2.32

Question: With G20A as the variant, how does the protein stability index read?
Answer: 2.52

Question: With G20T as the variant, how does the protein stability index read?
Answer: 3.42

Question: Which protein stability index does the source give for G20V here?
Answer: 2.75

Question: Which protein stability index does the source give for G20L here?
Answer: 2.5

Question: Which protein stability index does the source give for G20E here?
Answer: 3.52

Question: Which protein stability index does the source give for S7W here?
Answer: 1.74

Question: Which protein stability index does the source give for S7G here?
Answer: 2.5

Question: Which protein stability index does the source give for S7I here?
Answer: 2.04

Question: For S7M, which protein stability index is on record?
Answer: 2.65

Question: Which protein stability index does the source give for S7C here?
Answer: 1.84

Question: Which protein stability index does the source give for S7D here?
Answer: 4.89

Question: Which protein stability index does the source give for S7N here?
Answer: 3.55

Question: Which protein stability index does the source give for S7V here?
Answer: 2.42

Question: With S7H as the variant, how does the protein stability index read?
Answer: 2.4

Question: With H17Y as the variant, how does the protein stability index read?
Answer: 2.45

Question: With H17K as the variant, how does the protein stability index read?
Answer: 3.12

Question: Which protein stability index does the source give for H17G here?
Answer: 3.07

Question: Which protein stability index does the source give for H17F here?
Answer: 2.77

Question: For H17N, which protein stability index is on record?
Answer: 3.31

Question: For H17R, which protein stability index is on record?
Answer: 2.61

Question: With S14C as the variant, how does the protein stability index read?
Answer: 2.71

Question: For S14I, which protein stability index is on record?
Answer: 2.9

Question: Which protein stability index does the source give for S14G here?
Answer: 3.44

Question: For S14Y, which protein stability index is on record?
Answer: 2.37

Question: Which protein stability index does the source give for S14E here?
Answer: 3.41

Question: Which protein stability index does the source give for S14V here?
Answer: 2.96

Question: With Y8A as the variant, how does the protein stability index read?
Answer: 3.72

Question: With Y8M as the variant, how does the protein stability index read?
Answer: 3.6

Question: For Y8R, which protein stability index is on record?
Answer: 3.2

Question: For Y8F, which protein stability index is on record?
Answer: 2.59

Question: For Y8L, which protein stability index is on record?
Answer: 3.09

Question: Which protein stability index does the source give for Y8S here?
Answer: 4.09

Question: Which protein stability index does the source give for Y8D here?
Answer: 4.75

Question: With S23C as the variant, how does the protein stability index read?
Answer: 3.38

Question: For S23Y, which protein stability index is on record?
Answer: 2.49

Question: Which protein stability index does the source give for S23P here?
Answer: 3.23

Question: Which protein stability index does the source give for S23R here?
Answer: 3.05

Question: For S23H, which protein stability index is on record?
Answer: 3.33

Question: With S23N as the variant, how does the protein stability index read?
Answer: 2.91

Question: Which protein stability index does the source give for S23M here?
Answer: 2.33

Question: For E3T, which protein stability index is on record?
Answer: 2.19

Question: With E3C as the variant, how does the protein stability index read?
Answer: 2.76

Question: With E3S as the variant, how does the protein stability index read?
Answer: 1.59

Question: Which protein stability index does the source give for E3P here?
Answer: 2.96

Question: For E3Y, which protein stability index is on record?
Answer: 2.61

Question: Which protein stability index does the source give for G5A here?
Answer: 2.91

Question: Which protein stability index does the source give for G5Y here?
Answer: 2.5

Question: With G5M as the variant, how does the protein stability index read?
Answer: 3.31

Question: For G5C, which protein stability index is on record?
Answer: 3.52

Question: For G5S, which protein stability index is on record?
Answer: 3.52

Question: With G5P as the variant, how does the protein stability index read?
Answer: 2.58

Question: For G5K, which protein stability index is on record?
Answer: 3.98

Question: Which protein stability index does the source give for F1N here?
Answer: 5.32

Question: Which protein stability index does the source give for F1W here?
Answer: 4.25

Question: With F1P as the variant, how does the protein stability index read?
Answer: 5.34

Question: Which protein stability index does the source give for F1K here?
Answer: 4.89

Question: For S12H, which protein stability index is on record?
Answer: 2.9

Question: Which protein stability index does the source give for S12I here?
Answer: 2.64

Question: With S12P as the variant, how does the protein stability index read?
Answer: 2.92

Question: With S12M as the variant, how does the protein stability index read?
Answer: 2.9

Question: With S12W as the variant, how does the protein stability index read?
Answer: 2.22

Question: For S12G, which protein stability index is on record?
Answer: 3.14

Question: Which protein stability index does the source give for S12E here?
Answer: 3.56

Question: Which protein stability index does the source give for S12V here?
Answer: 3

Question: For S12L, which protein stability index is on record?
Answer: 2.81

Question: Which protein stability index does the source give for S12A here?
Answer: 2.58

Question: For S21P, which protein stability index is on record?
Answer: 3.43

Question: For S21V, which protein stability index is on record?
Answer: 3.07

Question: With S21M as the variant, how does the protein stability index read?
Answer: 2.78

Question: Which protein stability index does the source give for S21A here?
Answer: 2.94

Question: With S21H as the variant, how does the protein stability index read?
Answer: 2.94

Question: With G10H as the variant, how does the protein stability index read?
Answer: 3.12

Question: Which protein stability index does the source give for G10D here?
Answer: 3.67

Question: For G10L, which protein stability index is on record?
Answer: 2.62

Question: With G10E as the variant, how does the protein stability index read?
Answer: 3.95

Question: Which protein stability index does the source give for G10M here?
Answer: 2.15

Question: With G10K as the variant, how does the protein stability index read?
Answer: 3.61

Question: Which protein stability index does the source give for G10Y here?
Answer: 2.45

Question: Which protein stability index does the source give for L4W here?
Answer: 1.76

Question: With L4K as the variant, how does the protein stability index read?
Answer: 2.98

Question: Which protein stability index does the source give for L4I here?
Answer: 3.25

Question: For L4A, which protein stability index is on record?
Answer: 3.47

Question: With L4H as the variant, how does the protein stability index read?
Answer: 3.33

Question: For Y6N, which protein stability index is on record?
Answer: 4.58

Question: With Y6T as the variant, how does the protein stability index read?
Answer: 3.7

Question: For Y6Q, which protein stability index is on record?
Answer: 4.3

Question: For Y6M, which protein stability index is on record?
Answer: 3.71

Question: For S24E, which protein stability index is on record?
Answer: 4.02

Question: Which protein stability index does the source give for S24K here?
Answer: 3.42

Question: With S24Q as the variant, how does the protein stability index read?
Answer: 3.01

Question: For S24R, which protein stability index is on record?
Answer: 3.69

Question: With P2S as the variant, how does the protein stability index read?
Answer: 3.34

Question: Which protein stability index does the source give for P2C here?
Answer: 1.99

Question: For P2K, which protein stability index is on record?
Answer: 4.49

Question: With P2A as the variant, how does the protein stability index read?
Answer: 2.87

Question: For P2R, which protein stability index is on record?
Answer: 4.09

Question: Which protein stability index does the source give for P2M here?
Answer: 3.96

Question: Which protein stability index does the source give for G9C here?
Answer: 2.3

Question: Which protein stability index does the source give for G9P here?
Answer: 3.37

Question: With G9Y as the variant, how does the protein stability index read?
Answer: 2.11

Question: For G9L, which protein stability index is on record?
Answer: 1.6

Question: Which protein stability index does the source give for S18V here?
Answer: 3.36

Question: For S18Y, which protein stability index is on record?
Answer: 2.9

Question: For S18W, which protein stability index is on record?
Answer: 2.2

Question: For S18F, which protein stability index is on record?
Answer: 2.77

Question: With S18H as the variant, how does the protein stability index read?
Answer: 2.95

Question: Which protein stability index does the source give for R22G here?
Answer: 3.53

Question: Which protein stability index does the source give for R22M here?
Answer: 3.4

Question: For R22P, which protein stability index is on record?
Answer: 3.59

Question: For R22C, which protein stability index is on record?
Answer: 3.41

Question: For R22D, which protein stability index is on record?
Answer: 3.42

Question: For G11P, which protein stability index is on record?
Answer: 2.9

Question: Which protein stability index does the source give for G11C here?
Answer: 2.7

Question: For G11V, which protein stability index is on record?
Answer: 2.81

Question: Which protein stability index does the source give for G11K here?
Answer: 2.7

Question: Which protein stability index does the source give for G11T here?
Answer: 2.52

Question: With A13L as the variant, how does the protein stability index read?
Answer: 3.18

Question: For A13F, which protein stability index is on record?
Answer: 2.31

Question: With A13N as the variant, how does the protein stability index read?
Answer: 3.03

Question: With A13D as the variant, how does the protein stability index read?
Answer: 2.77

Question: With E19W as the variant, how does the protein stability index read?
Answer: 1.81

Question: Which protein stability index does the source give for E19V here?
Answer: 2.52

Question: For E19K, which protein stability index is on record?
Answer: 2.89

Question: With E19Y as the variant, how does the protein stability index read?
Answer: 2.41

Question: With E19D as the variant, how does the protein stability index read?
Answer: 3.64

Question: Which protein stability index does the source give for E19P here?
Answer: 3.15

Question: Which protein stability index does the source give for Q16S here?
Answer: 3.09

Question: With Q16F as the variant, how does the protein stability index read?
Answer: 2.03

Question: With Q16P as the variant, how does the protein stability index read?
Answer: 3.31

Question: For Q16R, which protein stability index is on record?
Answer: 2.41

Question: With Q16V as the variant, how does the protein stability index read?
Answer: 2.7

Question: With Q16A as the variant, how does the protein stability index read?
Answer: 2.86

Question: For S15F, which protein stability index is on record?
Answer: 2.71

Question: Which protein stability index does the source give for S15A here?
Answer: 3.59

Question: With S15R as the variant, how does the protein stability index read?
Answer: 2.92

Question: With S15Q as the variant, how does the protein stability index read?
Answer: 3.18

Question: With S15V as the variant, how does the protein stability index read?
Answer: 3.2

Question: For S15H, which protein stability index is on record?
Answer: 3.2

Question: For S15D, which protein stability index is on record?
Answer: 2.99

Variants of: B2
Experiment: as above
Conditions: c terminus: a fixed tail appended

Question: Which protein stability index does the source give for H24Q here?
Answer: 3.01

Question: For H24K, which protein stability index is on record?
Answer: 3

Question: For H24M, which protein stability index is on record?
Answer: 2.63

Question: With H24Y as the variant, how does the protein stability index read?
Answer: 2.46

Question: Which protein stability index does the source give for H24N here?
Answer: 2.81

Question: Which protein stability index does the source give for H24G here?
Answer: 2.75

Question: With H24E as the variant, how does the protein stability index read?
Answer: 3.96

Question: With H24V as the variant, how does the protein stability index read?
Answer: 2.65

Question: Which protein stability index does the source give for H24A here?
Answer: 3.61

Question: With H24R as the variant, how does the protein stability index read?
Answer: 3.1

Question: For H24C, which protein stability index is on record?
Answer: 3

Question: Which protein stability index does the source give for H24D here?
Answer: 3.4

Question: For H24T, which protein stability index is on record?
Answer: 3.25

Question: Which protein stability index does the source give for H24L here?
Answer: 2.11

Question: Which protein stability index does the source give for H24P here?
Answer: 2.91

Question: For H24I, which protein stability index is on record?
Answer: 2.23

Question: With H24W as the variant, how does the protein stability index read?
Answer: 2.76

Question: With H24S as the variant, how does the protein stability index read?
Answer: 3.48

Question: For H24F, which protein stability index is on record?
Answer: 2.36

Question: With H23T as the variant, how does the protein stability index read?
Answer: 3.18

Question: For H23V, which protein stability index is on record?
Answer: 2.96

Question: Which protein stability index does the source give for H23W here?
Answer: 3.4

Question: For H23S, which protein stability index is on record?
Answer: 2.73

Question: With H23Y as the variant, how does the protein stability index read?
Answer: 2.35
